{"source": "patent US8974802B2", "about": "“Medicament for the treatment of cancer of the pancreas” (Erytech Pharma, priority 2007, dated 2015)", "molecules": {"B1": {"name": "asparaginase (protein, UniProt P00805 23-348, looked up)", "L-asparaginase 2": "LPNITILATGGTIAGGGDSATKSNYTVGKVGVENLVNAVPQLKDIANVKGEQVVNIGSQDMNDNVWLTLAKKINTDCDKTDGFVITHGTDTMEETAYFLDLTVKCDKPVVMVGAMRPSTSMSADGPFNLYNAVVTAADKASANRGVLVVMNDTVLDGRDVTKTNTTDVATFKSVNYGPLGYIHNGKIDYQRTPARKHTSDTPFDVSKLNELPKVGIVYNYANASDLPAKALVDAGYDGIVSAGVGNGNLYKSVFDTLATAAKTGTAVVRSSRVPTGATTQDAEVDDAKYGFVASGTLNPQKARVLLQLALTQTKDPQQIQQIFNQY", "notes": "bacterial enzyme, CAS number 9015-68-3, hydrolyses and depletes asparagine"}, "B2": {"name": "PEG-asparaginase: pegylated form of asparaginase (Oncaspar, Enzon Pharmaceuticals) (protein, UniProt P00805 23-348, looked up)", "L-asparaginase 2": "B1 L-asparaginase 2", "modifications": "PEG"}}, "key": {"[1]": {"tested_on": "Mia PaCa-2 human pancreatic tumour cells", "assay": "Growth inhibition of human pancreatic tumours (Mia PaCa-2) in nude mice", "assay_type": "in vivo", "settings": "after 57 days, L-Aspa RBC single 200 IU/kg i.v., gemcitabine 4 x 60 mg/kg i.v.", "description": "The purpose of this experiment is to inject L-Aspa RBC into mice bearing human pancreatic tumours and to observe a tumour growth inhibition. A cell line sensitive to L-asparaginase in vitro, and deficient in L-asparagine synthase, was selected: Mia PaCa-2. To study the tumour growth inhibition after the injection of L-Aspa RBC, an in vivo protocol was set up with 4 groups of 12 mice. A reference treatment for cancer of the pancreas, gemcitabine, is included in the protocol. Human pancreatic tumour cells (Mia PaCa-2) in exponential growth phase (origin ATCC: American Type Culture Collection) were subjected to tryptic digestion, then counted and washed before finally being resuspended in a DMEM serum-free medium in order for them to be injected subcutaneously into 48 athymic nude/nude mice. The 48 athymic nude/nude (nude balb/c) mice, aged 5-6 weeks and between 18 and 22 g in weight, were supplied by Harlan (France). The animals were kept for 7 days in a specialized SPF (specific-pathogen-free) unit before the treatment. The 48 mice were divided randomly into 4 groups of 12 mice. […]"}, "[2]": {"tested_on": "PANC-1 human pancreatic tumor (clone no. 6sC)", "assay": "In vivo anti-tumoral study in mice bearing pancreatic tumor PANC-1", "settings": "day 43, L-aspa RBC single 200 IU/kg i.v., gemcitabine 4 x 80 mg/kg i.v.", "source_text": "The objective of this study was to assess the antitumoral effects of L-asparaginase encapsulated in red blood cells (L-aspa RBC) administered in a human pancreatic tumor (PANC-1) xenograft model.\nIn this study, 4 groups of 15 mice received either L-asparaginase encapsulated in red blood cells, gemcitabine (reference treatment in pancreatic cancer), a combination of both agents or control item. A last group of 10 mice received no treatment and was used as control group.\nA Log-growing culture of human pancreatic tumor cells, PANC-1 (obtained from ECCAC, UK), was subcloned and the clone no.\nClone no 6sC was trypsinized, counted, washed and resuspended in serum-free DMEM medium for sub-cutaneous injection to 100 nu/nu athymic mice.\nHundred athymic Nude mice of 5 week-old, weighing 20 g+/−3 g were supplied by Harlan France. […]\nFour days after cell implantation, tumor volumes were measured and ranked according to size and median was calculated. […]\nTumor measurements were recorded 3 times a week (on Mondays, Wednesday and Friday) during 43 days.\nThe relative tumor volume is calculated by dividing the tumor volume at a given day by the tumor volume before treatment avoiding the bias due to statistical difference in tumor volume between groups on the day of injection."}, "MIA Paca-2 cells [3]": {"tested_on": "MIA Paca-2 cells", "settings": "nude mice; PEG-asparaginase 12.5 or 25 IU/g per day i/p for 14 days; gemcitabine 80 mg/kg i/p days 1, 4, 7, 10; cited from earlier work"}, "MIA Paca-2 cells [4]": {"tested_on": "MIA Paca-2 cells", "settings": "PEG-asparaginase 0.8 kIU/kg; gemcitabine 80 mg/kg; mice; cited from earlier work"}, "MIA Paca-2 cells [5]": {"tested_on": "MIA Paca-2 cells", "settings": "cited from earlier work"}, "PANC-1 cells": {"tested_on": "PANC-1 cells", "settings": "cited from earlier work"}, "[6]": {"tested_on": "human pulmonary and melanoma cells", "settings": "Yunis et al. 1977; cited from earlier work"}, "pancreatic carcinoma": {"tested_on": "pancreatic carcinoma", "settings": "cited from earlier work"}, "[7]": {"settings": "direct injection; cited from earlier work"}, "BxPC-3 cells": {"tested_on": "BxPC-3 cells", "settings": "10 IU/ml; Denis et al. 1999; cited from earlier work"}, "PANC 10.05": {"tested_on": "PANC 10.05", "settings": "AACR 2006; cited from earlier work"}, "CFPAC-2": {"tested_on": "CFPAC-2", "settings": "AACR 2006; cited from earlier work"}, "AsPC-1": {"tested_on": "AsPC-1", "settings": "AACR 2006; cited from earlier work"}, "solid tumor": {"tested_on": "solid tumor", "settings": "trial suspended; cited from earlier work"}}}
{"molecule": "Nc1ccn([C@@H]2O[C@H](CO)[C@@H](O)C2(F)F)c(=O)n1", "note": "[gemcitabine]", "values": [{"measurement": "tumour volume", "setting": "[1]", "result": "1353±1016", "unit": "mm^3"}, {"measurement": "mouse survival (mice remaining / still alive)", "setting": "[2]", "result": 20, "unit": "%"}, {"measurement": "relative tumor volume", "setting": "[2]; tumor volume divided by volume before treatment", "result": "51.8±17.1"}, {"measurement": "cell growth inhibition in vivo", "setting": "MIA Paca-2 cells [3]", "result": 63.5, "unit": "%"}, {"measurement": "decrease of tumour volume", "setting": "MIA Paca-2 cells [4]", "result": 29, "unit": "%"}]}
{"molecule": "B1", "values": [{"measurement": "inhibition of cell growth", "setting": "MIA Paca-2 cells [5]; 0.0025 IU/ml, Wu et al. 1982", "result": "no effect"}, {"measurement": "effect on the growth of the cells", "setting": "MIA Paca-2 cells [5]; 0.1 IU/ml, Yunis et al. 1977", "result": "significant effect on the growth of the cells"}, {"measurement": "effect on cell growth", "setting": "MIA Paca-2 cells [5]; 0.5 and 1 IU/ml, Yunis et al. 1977", "result": "total inhibition of cell growth with cell death"}, {"measurement": "inhibition of cell growth", "setting": "PANC-1 cells; 0.0025 IU/ml, Wu et al. 1982", "result": "no effect"}, {"measurement": "effect on cell growth", "setting": "PANC-1 cells; 1 IU/ml, Yunis et al. 1977", "result": "has an effect"}, {"measurement": "effect on growth", "setting": "[6]", "result": "no effect"}, {"measurement": "side-effects", "setting": "pancreatic carcinoma; IV 1000 IU/kg/day, ten patients with inoperable pancreatic cancer, treatment stopped early", "result": "Serious side-effects appeared rapidly"}, {"measurement": "clinical response", "setting": "pancreatic carcinoma; two of the patients, Lessner 1977", "result": "no response"}, {"measurement": "allergic reaction incidence", "setting": "[7]", "result": 27, "unit": "%"}]}
{"molecule": "B2", "values": [{"measurement": "cell growth inhibition", "setting": "MIA Paca-2 cells [5]; 1 IU/ml, Denis et al. 1999", "result": 61, "unit": "%"}, {"measurement": "in vitro cytotoxicity (IC50)", "setting": "MIA Paca-2 cells [5]; AACR 2006", "result": 0.66, "unit": "IU/ml"}, {"measurement": "IC50", "setting": "MIA Paca-2 cells [5]; Denis et al. 1999", "result": 0.13, "unit": "IU/ml"}, {"measurement": "cell growth inhibition", "setting": "PANC-1 cells; 1 IU/ml, Denis et al. 1999", "result": 100, "unit": "%"}, {"measurement": "in vitro cytotoxicity (IC50)", "setting": "PANC-1 cells; AACR 2006", "result": 0.27, "unit": "IU/ml"}, {"measurement": "IC50", "setting": "PANC-1 cells; Denis et al. 1999", "result": 0.25, "unit": "IU/ml"}, {"measurement": "cell growth inhibition", "setting": "BxPC-3 cells", "result": 51, "unit": "%"}, {"measurement": "in vitro cytotoxicity (IC50)", "setting": "PANC 10.05", "result": 0.46, "unit": "IU/ml"}, {"measurement": "in vitro cytotoxicity (IC50)", "setting": "CFPAC-2", "result": "greater than 20 IU/ml"}, {"measurement": "in vitro cytotoxicity (IC50)", "setting": "AsPC-1", "result": "greater than 20 IU/ml"}, {"measurement": "cell growth inhibition in vivo", "setting": "MIA Paca-2 cells [3]", "result": 59, "unit": "%"}, {"measurement": "decrease of tumour volume", "setting": "MIA Paca-2 cells [4]", "result": 14, "unit": "%"}, {"measurement": "clinical trial outcome", "setting": "solid tumor", "result": "toxicity was reached before efficacy"}]}
